# Laboratory results published in PMC2856455 (Journal of molecular biology, 2010).
# Experiments:
# MDMX = target: T1, MDMX (Homo sapiens, UniProt O15151); assay: SPR-based competition binding assay, synthetic 24–108MDMX
# T1 sequence (O15151 24-108): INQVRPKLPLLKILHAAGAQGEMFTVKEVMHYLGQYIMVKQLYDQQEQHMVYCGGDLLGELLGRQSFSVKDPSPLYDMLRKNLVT
# MDM2 = MDM2 (Homo sapiens, UniProt Q00987); assay: SPR-based competition binding assay, synthetic 25–109MDM2
# [1] = calculated binding free energy relative to PMI
sequence,measurement,setting,value
TSFAEYWNLASP [L10A-PMI],"ΔΔG, PMI-MDMX",MDMX; [1],2.28 kcal/mol
same,"Kd ratio (kcal/mol), PMI-MDMX",MDMX; relative to PMI,50 kcal/mol
same,"ΔΔG(kcal/mol), PMI-MDM2",MDM2; [1],3.28 kcal/mol
same,preference between MDM2 and MDMX,MDM2; comparison of binding affinities for MDM2 and MDMX,higher binding affinity for MDMX than for MDM2
same,"difference in relative binding free energy, MDM2 versus MDMX",MDM2; mutation more deleterious to MDM2 than to MDMX,1.0 kcal/mol
same,"Kd ratio, PMI-MDM2",MDM2; relative to PMI,277
